Measurements reported in patent US20050239730A1, “Plasmodium falciparum erythrocyte binding protein baebl for use as a vaccine” (priority 2001, published 2005).

Assays:
[1] = molecular target: Gerbich human erythrocytes (exon 3 deletion of glycophorin C/D: shortened glycophorin C, absent glycophorin D); assay: region II on COS cells, erythrocyte-binding assay
[2] = molecular target: trypsin-treated human erythrocytes; assay: region II on COS cells, erythrocyte-binding assay
[3] = molecular target: normal human erythrocytes (untreated); assay: region II on COS cells, erythrocyte-binding assay
[4] = molecular target: neuraminidase-treated normal human erythrocytes; assay: region II on COS cells, erythrocyte-binding assay
[5] = test system: binding of BAEBL to human erythrocytes; assay: Competitive inhibition assay; conditions: 1 μM, 10 μM, 100 μM, and 1000 μM; preincubated 1 hr at room temperature
Method: To determine the specificity of binding, we studied binding to neuraminidase-and trypsin-treated human erythrocytes and human erythrocytes with various genetically modified blood groups. […] To determine whether BAEBL was binding to the carbohydrates on the erythrocyte receptor, we performed competitive inhibition with Neu5Ac(α2-3) lactosialic and Neu5Ac(α2-6)lactosialic acid at 1 μM, 10 μM, 100 μM, and 1000 μM.
An inhibition assay was conducted in the presence of Neu5Ac(α2-3) lactosialic acid or Neu5Ac(α2-6) lactosialic acid (Sigma). Metabolically labeled parasite supernatant (50 μl) was preincubated with 1, 10, 100, or 1000 μM in 15 μl of the aforementioned carbohydrates for 1 hr at room temperature. Packed erythrocytes (50 μl) were added to the mixture. The erythrocyte binding assay was conducted as described above. Immunolocalization of BAEBL.

[6] = test system: human erythrocytes; assay: Modified erythrocyte binding assay: absorption/elution of metabolically labeled parasite proteins followed by immunoprecipitation
From the text: We have developed a new assay for measuring binding of BAEBL to erythrocytes. Previously, EBA-175 was identified in parasite proteins bound and eluted from human erythrocytes. Its identification was based on the fact that it was the most abundant and the highest molecular weight protein eluted from these erythrocytes. Lower molecular weight proteins may be proteolytic fragments of EBA-175 or products of different genes. To positively identify BAEBL, we immunoprecipitated BAEBL from proteins eluted from erythrocytes with anti-region II and anti-region VI.
We also modified the protocol in that we identified proteins removed from the supernatant by erythrocyte absorption. We determined the different quantities of erythrocytes required to remove BAEBL from the parasite supernatant. […] The protein was largely removed by absorbing twice with 50 μl of packed erythrocytes for some culture supernatants and by only one absorbtion with 50 μl for other supernatants. Therefore, on some samples, we absorbed with 25 μl, 50 μl once, and 50 μl twice for comparison between normal erythrocytes and mutant erythrocytes or enzyme-treated erythrocytes. The protein was also eluted from the first 50 μl of packed erythrocytes used for absorption.
Blood was collected in 10% citrate-phosphate-dextrose (vol/vol) and stored for up to 4 weeks at 4° C. At the time of study, the erythrocytes were washed three times in incomplete media (RPMI-1640; Life Technologies, Rockville, Md.) with 25 mM HEPES and 0.36 mM hypoxanthine (Sigma, St. Louis, Mo.). For neuraminidase treatment, 5.5 ml of a 5% (vol/vol) suspension of the washed human erythrocytes in incomplete media were incubated twice with 3 milliunits of neuraminidase (Vibrio cholerae; CalBiochem, La Jolla, Calif.) for 2 hr at 37° C. each time. For trypsin treatment, washed human erythrocytes were incubated with 1 mg/ml of tosyl-phenylalanine-chloromethyl-ketone-treated trypsin (Sigma) for 2 hr at 37° C. After trypsin treatment, the cells were washed once in incomplete medium and incubated with 2 mg/ml soybean trypsin inhibitor (Sigma) for 10 min at room temperature. The cells were washed twice before use in a study.
The glycophorin A and glycophorin B null erythrocytes [En(a-) and S-s-U-, respectively and the glycophorin D null/glycophorin C modified erythrocytes (Gerbich cells) were frozen within a few days of receipt and thawed by the Red Cross method (Mallory, D. ed. 1993 Immunohematology Methods and Procedures American Red Cross, National Reference Laboratory, Rockville, Md., pp. 125-1-125-2). Blood from a Gerbich donor was collected in 10% (vol/vol) anticoagulant citrate-phosphate-dextrose.
Other glycophorin C/D mutant cells (Leach, Gerbich, and Yus cells) had been stored in liquid nitrogen as frozen pellets (Judd, W. J. 1994 in: Methods in Immunohematology Montgomery Scientific Publications Durham, N.C., pp. 188-190) and thawed directly into PBS at 37° C.
Soluble, metabolically labeled parasite proteins were obtained from culture supernatant of schizont-infected erythrocytes that released merozoites in the absence of uninfected erythrocytes. The parasites were left to lyse and release proteins into the culture supernatant. The Dd2/Nm clone of P. falciparum was cultured as previously described (Kaneko, O. et al. 2000 Mol Biochem Parasitol 110: […]) with the following exceptions. Schizont-infected erythrocytes (5×10^7 per ml of culture medium) were used during the metabolic labeling. The culture supernatant was ultracentrifuged in a Beckman Optima TLX Ultracentrifuge (Beckman, Fullerton, Calif.) at 40,000 rpm (98,600×g) for 10 min at 4° C. before storage at −70° C.
Proteins in the supernatant and in the diluted eluate were immunoprecipitated as previously described (Kaneko, O. et al. 2000 Mol Biochem Parasitol 110: 135-146) with the following exceptions. […]

[7] = test system: RBC (normal, trypsin- or neuraminidase-treated, Gerbich-negative); assay: Erythrocyte-binding assay with BAEBL region II variants expressed on the surface of COS cells; format: cell-based, human

Work on “BAEBL region II variant ISKK, expressed on the surface of COS cells (ligand)” yielded a percentage of binding to normal, untreated RBC [1] of 96%, a percentage of binding to normal, untreated RBC [2] of 92% and a COS cells with five or more attached RBC, total per coverslip (COS cells per coverslip) [3] of 59.

For “BAEBL region II variant VSTK, expressed on the surface of COS cells (ligand)”, the percentage of binding to normal, untreated RBC [1] was 0.9% and the COS cells with five or more attached RBC, total per coverslip (COS cells per coverslip) [3] was 65.

“BAEBL region II variant VSKK, expressed on the surface of COS cells (ligand)” was tested, and the percentage of binding to normal, untreated RBC [1] was 112%, the COS cells with five or more attached RBC, total per coverslip (COS cells per coverslip) [3] was 58 and the percentage of binding to normal, untreated RBC [4] was 90%.

`CC(=O)NC1C(O)CC(OC2C(O)C(CO)OC(OC3C(CO)OC(O)C(O)C3O)C2O)(C(=O)O)OC1C(O)C(O)CO` (stereo not drawn) [Neu5Ac(α2-3) lactosialic acid] was tested, and the “Inhibition of the binding of BAEBL to human erythrocytes” value [5] was “neither Neu5Ac(α2-3) nor Neu5Ac(α2-6) lactosialic acid inhibited the binding”.

Work on “BAEBL region II variant INRE, expressed on the surface of COS cells (ligand)” yielded a percentage of binding to normal, untreated RBC [1] of 100%, a percentage of binding to normal, untreated RBC [2] of 114% and a COS cells with five or more attached RBC, total per coverslip (COS cells per coverslip) [3] of 67. For the same molecule, the percentage of binding to normal, untreated RBC [4] was 110%.

With `CC(=O)NC1C(O)CC(OCC2OC(OC3C(CO)OC(O)C(O)C3O)C(O)C(O)C2O)(C(=O)O)OC1C(O)C(O)CO` (stereo not drawn) [Neu5Ac(α2-6) lactosialic acid] the “Inhibition of the binding of BAEBL to human erythrocytes” value [5] was “neither Neu5Ac(α2-3) nor Neu5Ac(α2-6) lactosialic acid inhibited the binding”.

B1: EBA-175: P. falciparum receptor that binds sialic acid and the peptide backbone of glycophorin A on erythrocytes (protein)
chain: ARNEYDIKENEKFLDVYKEKFNELDKKKYGNVQKTDKKIFTFIENKLDILNNSKFNKRWKSYGTPDNIDKNMSLINKHNNEEMFNNNYQSFLSTSSLIKQNKYVPINAVRVSRILSFLDSRINNGRNTSSNNEVLSNCREKRKGMKWDCKKKNDRSNYVCIPDRRIQLCIVNLSIIKTYTKETMKDHFIEASKKESQLLLKKNDNKYNSKFCNDLKNSFLDYGHLAMGNDMDFGGYSTKAENKIQEVFKGAHGEISEHKIKNFRKEWWNEFREKLWEAMLSEHKNNINNCKNIPQEELQITQWIKEWHGEFLLERDNRSKLPKSKCKNNTLYEACEKECIDPCMKYRDWIIRSKFEWHTLSKEYETQKVPKENAENYLIKISENKNDAKVSLLLNNCDAEYSKYCDCKHTTTLVKSVLNGNDNTIKEKREHIDLDDFSKFGCDKNSVDTNTKVWECKNPYILSTKDVCVPPRRQELCLGNIDRIYDKNLLMIKEHILAIAIYESRILKRKYKNKDDKEVCKIINKTFADIRDIIGGTDYWNDLSNRKLVGKINTNSKYVHRNKKNDKLFRDEWWKVIKKDVWNVISWVFKDKTVCKEDDIENIPQFFRWFSEWGDDYCQDKTKMIETLKVECKEKPCEDDNCKSKCNSYKEWISKKKEEYNKQAKQYQEYQKGNNYKMYSEFKSIKPEVYLKKYSEKCSNLNFEDEFKEELHSDYKNKCTMCPEVKDVPISIIRNNEQTSQEAVPEENTEIAHRTETPSISEGPKGNEQKERDDDSLSKISVSPENSRPETDAKDTSNLLKLKGDVDISMPKAVIGSSPNDNINVTEQGDNISGVNSKPLSDDVRPDKKELEDQNSDESEETVVNHISKSPSINNGDDSGSGSATVSESSSSNTGLSIDDDRNGDTFVRTQDTANTEDVIRKENADKDEDEKGADEERHSTSESLSSPEEKMLTDNEGGNSLNHEEVKEHTSNSDNVQQSGGIVNMNVEKELKDTLENPSSSLDEGKAHEELSEPNLSSDQDMSNTPGPLDNTSEETTERISNNEYKVNEREDERTLTKEYEDIVLKSHMNRESDDGELYDENSDLSTVNDESEDAEAKMKGNDTSEMSHNSSQHIESDQQKNDMKTVGDLGTTHVQNEISVPVTGEIDEKLRESKESKIHKAEEERLSHTDIHKINPEDRNSNTLHLKDIRNEENERHLTNQNINISQERDLQKHGFHTMNNLHGDGVSERSQINHSHHGNRQDRGGNSGNVLNMRSNNNNFNNIPSRYNLYDKKLDLDLYENRNDSTTKELIKKLAEINKCENEISVKYCDHMIHEEIPLKTCTKEKTRNLCCAVSDYCMSYFTYDSEEYYNCTKREFDDPSYTCFRKEAFSSMIFKFLITNKIYYYFYTYKTAKVTIKKINFSLIFFFFFSF
For B1, the “Binding to En(a-) erythrocytes” value ([6]; En(a-) erythrocytes, which lack glycophorin A) was “failed to bind”, the “Binding to S-s-U- erythrocytes” value ([6]; S-s-U- erythrocytes that lacked glycophorin B) was “bound” and the “Elution from Gerbich and normal erythrocytes” value ([6]; fresh Gerbich erythrocytes vs normal erythrocytes) was “eluted from both Gerbich and normal erythrocytes”. For the same molecule, the “Absorption from culture supernatant by Gerbich cells compared with normal erythrocytes” value ([6]; fresh blood from a person with the Gerbich mutation, two separate experiments) was “bound equally well to Gerbich and normal erythrocytes”, the “Binding to neuraminidase-treated human erythrocytes” value ([6]; neuraminidase-treated erythrocytes, Dd2/Nm culture supernatant) was “failure of neuraminidase-and trypsin-treated erythrocytes to bind” and the “Binding to Gerbich erythrocytes” value ([6]; pellet-frozen Gerbich (-2, -3, -4) erythrocytes) was “bound normally”. The “Binding to Yus erythrocytes” value ([6]; pellet-frozen Yus (-2, -3, -4) erythrocytes) was “bound normally” and the “Binding to trypsin-treated human erythrocytes” value ([6]; trypsin-treated erythrocytes, Dd2/Nm culture supernatant) was “failure of neuraminidase-and trypsin-treated erythrocytes to bind”.

B2: VSTK: BAEBL region II variant (aa 143-606) expressed in COS cells; V185, S239, T261, K285 (protein)
chain: TFIQKRTHLFACGIKRKSIKWICRENSEKITVCVPDRKIQLCVANFLNSRLETMEKFKEIFLISVNTEAKLLYNKNEGKDPSIFCNELRNSFSDFRSSFIGDDMDFGGNTDRVKGYINTKFSDYYKEKNVEKLNNIKKEWWEKNKANLWNHMIVNHKGNISKECAIIPAEEPQINLWIKEWNENFLMEKKRLFLNIKDKCVENKKYEACFGGCRLPCSSYTSFMKKSKTQMEVLTNLYKKKNSGVDKNNFLNDLFKKNNKNDLDDFFKNEKEYDDLCDCRYTATIIKSFLNGPAKNDVDIASQINVNDLRGFGCNYKSNNEKSWNCTGTFTNKFPGTCEPPRRQTLCLGRTYLLHRGHEEDYKEHLLGASIYEAQLLKYKYKEKDENALCSIIQNSYADLADIIKGSDIIKDYYGKKMEENLNKVNKDKKRNEESLKIFREKWWDENKENVWKVMSAVLKNKET
B2 was tested, and the “Binding to Gerbich-negative RBC as percentage of binding to normal, untreated RBC” value ([7]; Gerbich-negative RBC (exon 3 deletion of glycophorin C/D)) was 0.9%, the “Binding to neuraminidase-treated normal RBC as percentage of binding to normal, untreated RBC” value ([7]; neuraminidase-treated normal RBC) was 0% and the “Binding to normal RBC, untreated: COS cells with five or more attached RBC, total per coverslip” value ([7]; normal untreated RBC, region II (aa 143-606) expressed in COS cells) was 65. For the same molecule, the “Binding to trypsin-treated normal RBC as percentage of binding to normal, untreated RBC” value ([7]; trypsin-treated normal RBC) was 0%.
